Measurements as given in PMC12700175.

Target: Pyruvate kinase M2 (PKM2) of mouse retina (mouse (endogenous in retina)) (UniProt P52480)
Assay: cross-linking

stoichiometry N: 4
Substance: Pyruvate kinase M2 (PKM2) of mouse retina (from UniProt P52480 1-531) (enzyme)
